The target of the assay is T1, extracellular domain of human BCMA (human, UniProt Q02223 1-54).
T1 construct: amine-linked to Octet AR2G tips; also called hsBCMA; BCMA (human)
T1 sequence: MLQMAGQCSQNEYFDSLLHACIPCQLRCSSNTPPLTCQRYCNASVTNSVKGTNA
Put plainly: Octet BLI; Fab 200 nM.

Among the data in patent publication US20240327535A1 (EISAI R AND D MANAGEMENT, published 2024) are Kd values, retold here.

As a reminder, the Kd is a measure of binding affinity in units of concentration. Lower therefore signals tighter binding.

B1: AB200-R1H26-R2Vk28 (Fab, V domains shown)
VH: QVQLVQSGAEVKKPGSSVKVSCKASGGSFSNYWMHWVRQAPGQGLEWMGATYRIHSDTFYNQKFKGRVTITADKSTSTAYMELSSLRSEDTAVYYCARGAIYHGYDVLDNWGQGTLVTVSS
VL: DIQMTQSPSSLSASVGDRVTITCRASQSISSYLNWYQQKPGKAPKLLIYATSNIQSGVPSRFSGSGSGTDFTLTISSLQPEDFATYYCQQFRKIPWTFGQGTKLEIKR
The molecule B1 displayed a Kd of 2.68 nM.

B2: AB200-R1H26-R2Vk36 (Fab, V domains shown)
VH: QVQLVQSGAEVKKPGSSVKVSCKASGGSFSNYWMHWVRQAPGQGLEWMGATYRIHSDTFYNQKFKGRVTITADKSTSTAYMELSSLRSEDTAVYYCARGAIYHGYDVLDNWGQGTLVTVSS
VL: DIQMTQSPSSLSASVGDRVTITCRASQSISSYINWYQQKPGKAPKLLIYATSNLQSGVPSRFSGSGSGTDFTLTISSLQPEDFATYYCQQFRRLPWTFGQGTKLEIKR
In the case of B2, the equilibrium dissociation constant (Kd) worked out at 1.67 nM.

B3: AB200-R1H26-R2Vk32 (Fab, V domains shown)
VH: QVQLVQSGAEVKKPGSSVKVSCKASGGSFSNYWMHWVRQAPGQGLEWMGATYRIHSDTFYNQKFKGRVTITADKSTSTAYMELSSLRSEDTAVYYCARGAIYHGYDVLDNWGQGTLVTVSS
VL: DIQMTQSPSSLSASVGDRVTITCRASQSISSYLNWYQQKPGKAPKLLIYATSNLQIGVPSRFSGSGSGTDFTLTISSLQPEDFATYYCQQYRKIPWSFGQGTKLEIKR
The molecule B3 came in with an equilibrium dissociation constant (Kd) of 1.93 nM.

B4: AB200-R1H26-R2Vk33 (Fab, V domains shown)
VH: QVQLVQSGAEVKKPGSSVKVSCKASGGSFSNYWMHWVRQAPGQGLEWMGATYRIHSDTFYNQKFKGRVTITADKSTSTAYMELSSLRSEDTAVYYCARGAIYHGYDVLDNWGQGTLVTVSS
VL: DIQMTQSPSSLSASVGDRVTITCRASQSISSYLNWYQQKPGKAPKLLIYATSNLQIGVPSRFSGSGSGTDFTLTISSLQPEDFATYYCQQFRKIPWTFGQGTKLEIKR
B4 had a Kd of 1.74 nM.

B5: AB200-R1H26-R2Vk41 (Fab, V domains shown)
VH: QVQLVQSGAEVKKPGSSVKVSCKASGGSFSNYWMHWVRQAPGQGLEWMGATYRIHSDTFYNQKFKGRVTITADKSTSTAYMELSSLRSEDTAVYYCARGAIYHGYDVLDNWGQGTLVTVSS
VL: DIQMTQSPSSLSASVGDRVTITCRASQSISSYINWYQQKPGKAPKLLIYATSNIQSGVPSRFSGSGSGTDFTLTISSLQPEDFATYYCQQFRRLPWTFGQGTKLEIKR
The molecule B5 showed a dissociation constant Kd of 1.87 nM.

B6: AB200-R1H26-R2Vk37 (Fab, V domains shown)
VH: QVQLVQSGAEVKKPGSSVKVSCKASGGSFSNYWMHWVRQAPGQGLEWMGATYRIHSDTFYNQKFKGRVTITADKSTSTAYMELSSLRSEDTAVYYCARGAIYHGYDVLDNWGQGTLVTVSS
VL: DIQMTQSPSSLSASVGDRVTITCRASQSISSYINWYQQKPGKAPKLLIYATSNLQSGVPSRFSGSGSGTDFTLTISSLQPEDFATYYCQQYRKIPWSFGQGTKLEIKR
Turning to B6, binding was characterised by a dissociation constant (Kd) of 2.3 nM.

B7: AB200-R1H26-R2Vk31 (Fab, V domains shown)
VH: QVQLVQSGAEVKKPGSSVKVSCKASGGSFSNYWMHWVRQAPGQGLEWMGATYRIHSDTFYNQKFKGRVTITADKSTSTAYMELSSLRSEDTAVYYCARGAIYHGYDVLDNWGQGTLVTVSS
VL: DIQMTQSPSSLSASVGDRVTITCRASQSISSYLNWYQQKPGKAPKLLIYATSNLQIGVPSRFSGSGSGTDFTLTISSLQPEDFATYYCQQFRRLPWTFGQGTKLEIKR
The molecule B7 came in with a Kd of 1.1 nM.

B8: AB200-R1H26-R2Vk45 (Fab, V domains shown)
VH: QVQLVQSGAEVKKPGSSVKVSCKASGGSFSNYWMHWVRQAPGQGLEWMGATYRIHSDTFYNQKFKGRVTITADKSTSTAYMELSSLRSEDTAVYYCARGAIYHGYDVLDNWGQGTLVTVSS
VL: DIQMTQSPSSLSASVGDRVTITCRASQSISSYINWYQQKPGKAPKLLIYATSNLQIGVPSRFSGSGSGTDFTLTISSLQPEDFATYYCQQYRRIPWTFGQGTKLEIKR
B8 yielded a Kd of 1.57 nM.

B9: AB200-R1H26-R2Vk30 (Fab, V domains shown)
VH: QVQLVQSGAEVKKPGSSVKVSCKASGGSFSNYWMHWVRQAPGQGLEWMGATYRIHSDTFYNQKFKGRVTITADKSTSTAYMELSSLRSEDTAVYYCARGAIYHGYDVLDNWGQGTLVTVSS
VL: DIQMTQSPSSLSASVGDRVTITCRASQSISSYLNWYQQKPGKAPKLLIYATSNLQIGVPSRFSGSGSGTDFTLTISSLQPEDFATYYCQQYRRIPWTFGQGTKLEIKR
As to B9, the dissociation constant Kd was found to be 1.74 nM.

B10: AB200-R1H26-R2Vk38 (Fab, V domains shown)
VH: QVQLVQSGAEVKKPGSSVKVSCKASGGSFSNYWMHWVRQAPGQGLEWMGATYRIHSDTFYNQKFKGRVTITADKSTSTAYMELSSLRSEDTAVYYCARGAIYHGYDVLDNWGQGTLVTVSS
VL: DIQMTQSPSSLSASVGDRVTITCRASQSISSYINWYQQKPGKAPKLLIYATSNLQSGVPSRFSGSGSGTDFTLTISSLQPEDFATYYCQQFRKIPWTFGQGTKLEIKR
As to B10, binding was put at a Kd of 2.85 nM.

B11: AB200-R1H26-R2Vk39 (Fab, V domains shown)
VH: QVQLVQSGAEVKKPGSSVKVSCKASGGSFSNYWMHWVRQAPGQGLEWMGATYRIHSDTFYNQKFKGRVTITADKSTSTAYMELSSLRSEDTAVYYCARGAIYHGYDVLDNWGQGTLVTVSS
VL: DIQMTQSPSSLSASVGDRVTITCRASQSISSYINWYQQKPGKAPKLLIYATSNIQSGVPSRFSGSGSGTDFTLTISSLQPEDFATYYCQQYRRLPWSFGQGTKLEIKR
For the molecule B11, the affinity, expressed as Kd, was 1.83 nM.

B12: AB200-R1H26-R2Vk40 (Fab, V domains shown)
VH: QVQLVQSGAEVKKPGSSVKVSCKASGGSFSNYWMHWVRQAPGQGLEWMGATYRIHSDTFYNQKFKGRVTITADKSTSTAYMELSSLRSEDTAVYYCARGAIYHGYDVLDNWGQGTLVTVSS
VL: DIQMTQSPSSLSASVGDRVTITCRASQSISSYINWYQQKPGKAPKLLIYATSNIQSGVPSRFSGSGSGTDFTLTISSLQPEDFATYYCQQYRRIPWTFGQGTKLEIKR
As for B12, binding was put at a Kd of 2.34 nM.

B13: AB200-R1H26-R2Vk29 (Fab, V domains shown)
VH: QVQLVQSGAEVKKPGSSVKVSCKASGGSFSNYWMHWVRQAPGQGLEWMGATYRIHSDTFYNQKFKGRVTITADKSTSTAYMELSSLRSEDTAVYYCARGAIYHGYDVLDNWGQGTLVTVSS
VL: DIQMTQSPSSLSASVGDRVTITCRASQSISSYLNWYQQKPGKAPKLLIYATSNLQIGVPSRFSGSGSGTDFTLTISSLQPEDFATYYCQQYRRLPWSFGQGTKLEIKR
Take B13: binding was put at a Kd of 1.18 nM.

B14: AB200-R1H26-R2Vk46 (Fab, V domains shown)
VH: QVQLVQSGAEVKKPGSSVKVSCKASGGSFSNYWMHWVRQAPGQGLEWMGATYRIHSDTFYNQKFKGRVTITADKSTSTAYMELSSLRSEDTAVYYCARGAIYHGYDVLDNWGQGTLVTVSS
VL: DIQMTQSPSSLSASVGDRVTITCRASQSISSYINWYQQKPGKAPKLLIYATSNLQIGVPSRFSGSGSGTDFTLTISSLQPEDFATYYCQQFRRLPWTFGQGTKLEIKR
B14 came in with an equilibrium dissociation constant (Kd) of 1.35 nM.

B15: AB200-R1H26-R2Vk34 (Fab, V domains shown)
VH: QVQLVQSGAEVKKPGSSVKVSCKASGGSFSNYWMHWVRQAPGQGLEWMGATYRIHSDTFYNQKFKGRVTITADKSTSTAYMELSSLRSEDTAVYYCARGAIYHGYDVLDNWGQGTLVTVSS
VL: DIQMTQSPSSLSASVGDRVTITCRASQSISSYINWYQQKPGKAPKLLIYATSNLQSGVPSRFSGSGSGTDFTLTISSLQPEDFATYYCQQYRRLPWSFGQGTKLEIKR
In turn, B15 displayed a dissociation constant Kd of 1.55 nM.

B16: AB200-R1H26-R2Vk43 (Fab, V domains shown)
VH: QVQLVQSGAEVKKPGSSVKVSCKASGGSFSNYWMHWVRQAPGQGLEWMGATYRIHSDTFYNQKFKGRVTITADKSTSTAYMELSSLRSEDTAVYYCARGAIYHGYDVLDNWGQGTLVTVSS
VL: DIQMTQSPSSLSASVGDRVTITCRASQSISSYINWYQQKPGKAPKLLIYATSNIQSGVPSRFSGSGSGTDFTLTISSLQPEDFATYYCQQFRKIPWTFGQGTKLEIKR
Regarding B16, the affinity, expressed as Kd, was 3.23 nM.

B17: AB200-R1H26-R2Vk48 (Fab, V domains shown)
VH: QVQLVQSGAEVKKPGSSVKVSCKASGGSFSNYWMHWVRQAPGQGLEWMGATYRIHSDTFYNQKFKGRVTITADKSTSTAYMELSSLRSEDTAVYYCARGAIYHGYDVLDNWGQGTLVTVSS
VL: DIQMTQSPSSLSASVGDRVTITCRASQSISSYINWYQQKPGKAPKLLIYATSNLQIGVPSRFSGSGSGTDFTLTISSLQPEDFATYYCQQFRKIPWTFGQGTKLEIKR
Molecule B17 yielded a Kd of 2.31 nM.

B18: AB200-R1H26-R2Vk47 (Fab, V domains shown)
VH: QVQLVQSGAEVKKPGSSVKVSCKASGGSFSNYWMHWVRQAPGQGLEWMGATYRIHSDTFYNQKFKGRVTITADKSTSTAYMELSSLRSEDTAVYYCARGAIYHGYDVLDNWGQGTLVTVSS
VL: DIQMTQSPSSLSASVGDRVTITCRASQSISSYINWYQQKPGKAPKLLIYATSNLQIGVPSRFSGSGSGTDFTLTISSLQPEDFATYYCQQYRKIPWSFGQGTKLEIKR
On to B18, for which binding was put at a Kd of 1.73 nM.

B19: AB200-R1H26-R2Vk35 (Fab, V domains shown)
VH: QVQLVQSGAEVKKPGSSVKVSCKASGGSFSNYWMHWVRQAPGQGLEWMGATYRIHSDTFYNQKFKGRVTITADKSTSTAYMELSSLRSEDTAVYYCARGAIYHGYDVLDNWGQGTLVTVSS
VL: DIQMTQSPSSLSASVGDRVTITCRASQSISSYINWYQQKPGKAPKLLIYATSNLQSGVPSRFSGSGSGTDFTLTISSLQPEDFATYYCQQYRRIPWTFGQGTKLEIKR
Turning to B19, binding was put at a Kd of 1.76 nM.

B20: AB200-R1H26-R2Vk44 (Fab, V domains shown)
VH: QVQLVQSGAEVKKPGSSVKVSCKASGGSFSNYWMHWVRQAPGQGLEWMGATYRIHSDTFYNQKFKGRVTITADKSTSTAYMELSSLRSEDTAVYYCARGAIYHGYDVLDNWGQGTLVTVSS
VL: DIQMTQSPSSLSASVGDRVTITCRASQSISSYINWYQQKPGKAPKLLIYATSNLQIGVPSRFSGSGSGTDFTLTISSLQPEDFATYYCQQYRRLPWSFGQGTKLEIKR
B20 returned a Kd of 1.28 nM.

B21: AB200-R1H26-R2Vk42 (Fab, V domains shown)
VH: QVQLVQSGAEVKKPGSSVKVSCKASGGSFSNYWMHWVRQAPGQGLEWMGATYRIHSDTFYNQKFKGRVTITADKSTSTAYMELSSLRSEDTAVYYCARGAIYHGYDVLDNWGQGTLVTVSS
VL: DIQMTQSPSSLSASVGDRVTITCRASQSISSYINWYQQKPGKAPKLLIYATSNIQSGVPSRFSGSGSGTDFTLTISSLQPEDFATYYCQQYRKIPWSFGQGTKLEIKR
Turning to B21, the equilibrium dissociation constant (Kd) was 2.42 nM.
